Measured values: patent US20170355769A1 (AbbVie / Abbott, published 2017)
Numbering of substitutions follows the chain as printed.

T1: Human full length B7-H3 (human, UniProt Q5ZPR3 29-534)
T1 sequence: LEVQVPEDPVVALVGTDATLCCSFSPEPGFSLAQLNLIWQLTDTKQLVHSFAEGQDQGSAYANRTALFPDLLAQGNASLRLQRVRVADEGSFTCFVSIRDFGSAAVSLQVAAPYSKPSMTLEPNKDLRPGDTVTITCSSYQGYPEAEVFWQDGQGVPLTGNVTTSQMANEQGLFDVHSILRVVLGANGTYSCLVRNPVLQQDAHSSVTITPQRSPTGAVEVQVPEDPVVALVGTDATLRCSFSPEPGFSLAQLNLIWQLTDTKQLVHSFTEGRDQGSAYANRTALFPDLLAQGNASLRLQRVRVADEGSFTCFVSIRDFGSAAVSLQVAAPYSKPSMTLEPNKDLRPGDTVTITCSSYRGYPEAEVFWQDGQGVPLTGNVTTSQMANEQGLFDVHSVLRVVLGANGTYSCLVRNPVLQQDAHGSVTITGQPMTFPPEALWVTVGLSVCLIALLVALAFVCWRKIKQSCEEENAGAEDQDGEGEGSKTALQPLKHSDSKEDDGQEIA

B1: huAb13v1-XW (antibody, human IgG1, kappa, L234A L235A, V domains shown)
VH: EVQLQESGPGLVKPSETLSLTCAVTGYSITSGYSWHWIRQFPGNGLEWMGYIHSSGSTNYNPSLKSRISISRDTSKNQFFLKLSSVTAADTAVYYCAGYDDYFEYWGQGTTVTVSS
VL: DIQMTQSPSSLSASVGDRVTITCKASQNVGFNVAWYQQKPGKSPKALIYSASYRYSGVPSRFSGSGSGTDFTLTISSLQPEDFAEYFCQQYNWYPFTFGQGTKLEIKR
modifications: synthon XW on reduced interchain Cys
B2: huAb13v1-SE (antibody, human IgG1, kappa, L234A L235A, V domains shown)
VH: B1 VH
VL: B1 VL
modifications: synthon SE on reduced interchain Cys
B3: huAb13v1-SR (antibody, human IgG1, kappa, L234A L235A, V domains shown)
VH: B1 VH
VL: B1 VL
modifications: synthon SR on reduced interchain Cys
B4: huAb13v1-YG (antibody, human IgG1, kappa, L234A L235A, V domains shown)
VH: B1 VH
VL: B1 VL
modifications: synthon YG on reduced interchain Cys
B5: huAb13v1-KZ (antibody, human IgG1, kappa, L234A L235A, V domains shown)
VH: B1 VH
VL: B1 VL
modifications: synthon KZ on reduced interchain Cys
B6: huAb3v2.5-TX (antibody, human IgG1, kappa, L234A L235A, V domains shown)
VH: EVQLVQSGAEVKKPGSSVKVSCKASGYTFSSYWMHWVRQAPGQGLEWIGLIHPESGSTNYNEMFKNRATLTVDRSTSTAYMELSSLRSEDTAVYYCAGGGRLYFDYWGQGTTVTVSS
VL: DIVMTQSPLSLPVTPGEPASISCRSSQSLVHSNRDTYLRWYLQKPGQSPQLLIYKVSNRFSGVPDRFSGSGSGTDFTLKISRVEAEDVGVYYCSQSTHVPYTFGGGTKVEIKR
modifications: synthon TX on reduced interchain Cys
B7: huAb3v2.5-TV (antibody, human IgG1, kappa, L234A L235A, V domains shown)
VH: B6 VH
VL: B6 VL
modifications: synthon TV on reduced interchain Cys
B8: huAb3v2.5-YY (antibody, human IgG1, kappa, L234A L235A, V domains shown)
VH: B6 VH
VL: B6 VL
modifications: synthon YY on reduced interchain Cys
B9: huAb3v2.5-AAA (antibody, human IgG1, kappa, L234A L235A, V domains shown)
VH: B6 VH
VL: B6 VL
modifications: synthon AAA on reduced interchain Cys
B10: huAb13v1-TX (antibody, human IgG1, kappa, L234A L235A, V domains shown)
VH: B1 VH
VL: B1 VL
modifications: synthon TX on reduced interchain Cys
B11: huAb3v2.5-AAD (antibody, human IgG1, kappa, L234A L235A, V domains shown)
VH: B6 VH
VL: B6 VL
modifications: synthon AAD on reduced interchain Cys
B12: huAb3v2.5-WD (antibody, human IgG1, kappa, L234A L235A, V domains shown)
VH: B6 VH
VL: B6 VL
modifications: synthon WD on reduced interchain Cys
B13: huAb3v2.5-LB (antibody, human IgG1, kappa, L234A L235A, V domains shown)
VH: B6 VH
VL: B6 VL
modifications: synthon LB on reduced interchain Cys
B14: huAb3v2.5-ZT (antibody, human IgG1, kappa, L234A L235A, V domains shown)
VH: B6 VH
VL: B6 VL
modifications: synthon ZT on reduced interchain Cys
B15: huAb3v2.5-ZZ (antibody, human IgG1, kappa, L234A L235A, V domains shown)
VH: B6 VH
VL: B6 VL
modifications: synthon ZZ on reduced interchain Cys
B16: huAb3v2.5-XW (antibody, human IgG1, kappa, L234A L235A, V domains shown)
VH: B6 VH
VL: B6 VL
modifications: synthon XW on reduced interchain Cys
B17: huAb3v2.5-SE (antibody, human IgG1, kappa, L234A L235A, V domains shown)
VH: B6 VH
VL: B6 VL
modifications: synthon SE on reduced interchain Cys
B18: huAb3v2.5-SR (antibody, human IgG1, kappa, L234A L235A, V domains shown)
VH: B6 VH
VL: B6 VL
modifications: synthon SR on reduced interchain Cys
B19: huAb3v2.5-YG (antibody, human IgG1, kappa, L234A L235A, V domains shown)
VH: B6 VH
VL: B6 VL
modifications: synthon YG on reduced interchain Cys
B20: huAb3v2.5-KZ (antibody, human IgG1, kappa, L234A L235A, V domains shown)
VH: B6 VH
VL: B6 VL
modifications: synthon KZ on reduced interchain Cys
B21: huAb13v1-TV (antibody, human IgG1, kappa, L234A L235A, V domains shown)
VH: B1 VH
VL: B1 VL
modifications: synthon TV on reduced interchain Cys
B22: huAb3v2.6-TX (antibody, human IgG1, kappa, L234A L235A, V domains shown)
VH: B6 VH
VL: B6 VL with R34Q
modifications: synthon TX on reduced interchain Cys
B23: huAb3v2.6-TV (antibody, human IgG1, kappa, L234A L235A, V domains shown)
VH: B6 VH
VL: B6 VL with R34Q
modifications: synthon TV on reduced interchain Cys
B24: huAb3v2.6-YY (antibody, human IgG1, kappa, L234A L235A, V domains shown)
VH: B6 VH
VL: B6 VL with R34Q
modifications: synthon YY on reduced interchain Cys
B25: huAb3v2.6-AAA (antibody, human IgG1, kappa, L234A L235A, V domains shown)
VH: B6 VH
VL: B6 VL with R34Q
modifications: synthon AAA on reduced interchain Cys
B26: huAb3v2.6-AAD (antibody, human IgG1, kappa, L234A L235A, V domains shown)
VH: B6 VH
VL: B6 VL with R34Q
modifications: synthon AAD on reduced interchain Cys
B27: huAb3v2.6-WD (antibody, human IgG1, kappa, L234A L235A, V domains shown)
VH: B6 VH
VL: B6 VL with R34Q
modifications: synthon WD on reduced interchain Cys
B28: huAb3v2.6-LB (antibody, human IgG1, kappa, L234A L235A, V domains shown)
VH: B6 VH
VL: B6 VL with R34Q
modifications: synthon LB on reduced interchain Cys
B29: huAb3v2.6-ZT (antibody, human IgG1, kappa, L234A L235A, V domains shown)
VH: B6 VH
VL: B6 VL with R34Q
modifications: synthon ZT on reduced interchain Cys
B30: huAb3v2.6-ZZ (antibody, human IgG1, kappa, L234A L235A, V domains shown)
VH: B6 VH
VL: B6 VL with R34Q
modifications: synthon ZZ on reduced interchain Cys
B31: huAb13v1-AAA (antibody, human IgG1, kappa, L234A L235A, V domains shown)
VH: B1 VH
VL: B1 VL
modifications: synthon AAA on reduced interchain Cys
B32: huAb3v2.6-XW (antibody, human IgG1, kappa, L234A L235A, V domains shown)
VH: B6 VH
VL: B6 VL with R34Q
modifications: synthon XW on reduced interchain Cys
B33: huAb3v2.6-SE (antibody, human IgG1, kappa, L234A L235A, V domains shown)
VH: B6 VH
VL: B6 VL with R34Q
modifications: synthon SE on reduced interchain Cys
B34: huAb3v2.6-SR (antibody, human IgG1, kappa, L234A L235A, V domains shown)
VH: B6 VH
VL: B6 VL with R34Q
modifications: synthon SR on reduced interchain Cys

Target: T1, Human full length B7-H3
Assay: cell-based or functional assay

| Binder | EC50 nM H1650 (tumor cell cytotoxicity) |
| --- | --- |
| B1 | 0.86 nM |
| B2 | 0.63 nM |
| B3 | 0.59 nM |
| B4 | 0.33 nM |
| B5 | 179 nM |
| B6 | 0.62 nM |
| B7 | 0.53 nM |
| B8 | 0.71 nM |
| B9 | 0.85 nM |
| B10 | 0.22 nM |
| B11 | 0.49 nM |
| B12 | 0.83 nM |
| B13 | 2.59 nM |
| B14 | 0.95 nM |
| B15 | 1.1 nM |
| B16 | 2.18 nM |
| B17 | 0.85 nM |

| Binder | EC50 nM H1650 (tumor cell cytotoxicity) |
| --- | --- |
| B18 | 0.59 nM |
| B19 | 0.71 nM |
| B20 | 0.87 nM |
| B21 | 0.43 nM |
| B22 | 0.47 nM |
| B23 | 0.52 nM |
| B24 | 0.72 nM |
| B25 | 1.24 nM |
| B26 | 0.85 nM |
| B27 | 0.79 nM |
| B28 | 2.07 nM |
| B29 | 1.11 nM |
| B30 | 1.35 nM |
| B31 | 0.37 nM |
| B32 | 2.4 nM |
| B33 | 1.01 nM |
| B34 | 0.71 nM |
